# PMC9241723
# Target: T1, MaNCP1-N (N-terminal C2H2 zinc finger cluster of MaNCP1) (Metarhizium acridum (CQMa102)) (UniProt E9E378)
# T1 sequence: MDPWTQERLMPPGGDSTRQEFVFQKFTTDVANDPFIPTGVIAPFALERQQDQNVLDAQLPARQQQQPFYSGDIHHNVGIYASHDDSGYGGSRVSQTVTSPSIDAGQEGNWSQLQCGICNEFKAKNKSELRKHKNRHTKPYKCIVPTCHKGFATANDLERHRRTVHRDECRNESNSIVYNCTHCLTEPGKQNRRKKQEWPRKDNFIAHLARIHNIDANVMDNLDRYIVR
# Experiment: EMSA
# Conditions: Chemiluminescent EMSA kit (Beyotime), biotin-labeled probe; buffer, salt, pH and temperature not stated
sequence,measurement,value
AAAGATCAATAGGAGCTCAGACGACGAGATCGGATGGTGGGGTTCCGGGCAGGCGCAGGCGCGGCGGAAGTCGGCTAGCAGGAGCAACCCAATTGATAAGAGCTCAAGTG (double strand) [MaNmrA promoter probe],binding,binds
